From US20120207760A1 (THERACLONE SCIENCES, published 2012)

B1: TCN-552 (5249_I23) (antibody, V domains shown)
VH: QVQVVQSGAEVKKPGSSVRVSCQASGGTFMNYAIIWVRRAPGQGLEWMGGIIPVFPTPNYAQMFQGRVTISTDESRSTSFLELTNLRYEDTAVYYCARRIYHGGNSGFDFWGQGTLVTVSS
VL: EIVLTQSPATLSLSPGERATLSCRASQSVGNYLAWYQQKPGQAPRLLIYDSSNRAPGIPARFSGSGSGTDFTLTISSLAPEDFAVYYCQQRSKWPPMYSFGHGTKLEIK
B2: TCN-550 (5096_F06) (antibody, V domains shown)
VH: QVQLQESGPGLVKPSETLSLTCTVSGASINSHYWSWIRQPPGKGLEWIGYVYYSGSTTYNPSLKSRVTLSVDTSKNQFSLNLSSVTAADTAFYYCARHPYDVLTGSGDWFDPWGQGTLVTVSS
VL: SYVLTQAPSVSVAPGQTARITCGGNAIGSKKVHWYQHKAGQAPVLVVYDDTDRPSGIPERFSGSNSWSTATLTINRVEAGDEADYYCQVWDFTIDHVVFGGGTKLTVL
B3: TCN-555 (5246_L16) (antibody, V domains shown)
VH: QVQLVQSGAEVKRPGSSVKVSCTASGGIFRKNAISWVRQAPGQGLEWMGGIIAVFNTANYAQKFQNRVKITADESGNTAYMELSSLTSDDTAVYYCASHPKYFYGSGSYPDFWGQGTLVTVSS
VL: QSALTQPRSVSGSPGQSITISCTGGSSDIGASNSVSWYQQHPGKAPKLVIFDVTERPSGVPHRFSGSKSGNTASLTVSGLQPDDEADYFCCAYGGKYLVVFGGGTKVTVL
B4: TCN-555 (5246_L16) (antibody, V domains shown)
VH: B3 VH
VL: B3 VL
B5: TCN-536 (5095_N01) (antibody, V domains shown)
VH: QVQLQQWGAGLLKPSETLSLTCAVYGGSFSVSGYYWSWIRQPPGRGLEWIGEISHGGSTNYNPSLKSRVTISVDTTKNQFSLRLSSVTAADTAVYYCARGTDPDTEVYCRVGNCAAFDYWGQGSLVTVSS
VL: EIILAQSPGTLSLSPGERATLSCRASQFVSTRSLAWYQQRPGQAPRLLIYGASSRATGIPDRFSGSGSGTDFTLTISRLEPEDFAVYYCQHYGYSPRYAFGQGSKVEIK
B6: TCN-538 (3206_O17) (antibody, V domains shown)
VH: QITLKESGPTLVKPTQTLTLTCVFSGFSLSITGVRVGWIRQPPGKALEWLALISWDDEKHYSPSLQSRLTITKDTSKNQVVLTMTNLDPVDTATYYCARSTDRGHVLRYFGWMLPGDAFDVWGQGTMVTVSS
VL: DIVMTQSPDFLPVSLGERATINCKSSQRVLYSSNNKNYLAWYQLKPGQPPKLIIYWASTRESGVPDRFSGSGSGTEFTLTISSLQAEDVAVYYCQQYYSRPYTFGQGTKLEIK
B7: TCN-540 (5060_F05) (antibody, V domains shown)
VH: QVQLVQSGGGVVQPGRSLRLSCAASGFTFSSYAMHWVRQAPGKGLEWVAIISYDGNDQYYTDSVKGRFTISRDSSKVYLQMHRLRPEDTAVYYCAKEFETSGYFHGSFDYWGQGILVTVSS
VL: QSALTQPASVSGSPGQSITISCTGTSSDVGGYNYVSWYQQHPGKAPKLLIYEVTNWPSGVSNRFSGSKSGNTASLTISGLQAEDEADYYCSSYAGSSTWVFGGGTRVTVL
B8: TCN-553 (5261_C18) (antibody, V domains shown)
VH: QVQVVQSGTEVKKPGSSVKVSCQTSGGRFMSYAITWVRQAPGQGLEWMGGIVPVFGTANYAQKFQGRVTITTDDSTRTAYMELSSLRSEDTAVYYCGFRYGSGYGFDSWGQGTLVTVSS
VL: EIVLTQSPGTLSLSPGERATLSCRASQSVSSSYLAWYQKKPGQAPRLLIYGASTRATGIPDRFTGSGSGTDFTLSISRLEPEDFAVYYCQHFGTSVFTFGGGTKVEIK
B9: TCN-551 (5243_D01) (antibody, V domains shown)
VH: EVQLVQSGSEVKKPGESLKISCKGSGYSFSNYWIGWVRHMPGKGLEWMGIIYPGDSDTRYSPSFQGQVTMSADKSSSTVYLQWSSLKASDTAIYYCARRGGHSFGYGSGGDTHSEFDSWGQGTLVTVSS
VL: QSVLTQSPSVSAAPGQKVTISCSGSDSNIGDYFVCWYQHLPGKPPQLLIYENNKRPSGIPDRFSGSKSGTSATLGITGIQTGDEADYYCATWDGSLSAWVFGGGTKLTVL
B10: TCN-539 (5056_A08) (antibody, V domains shown)
VH: QVQLVESGGGVVQPGRSLRLSCAASEITFITYAMHWVRQAPGKGLEWVALISDDGSNKFYADSVKGRFTISRDNSKNTLYLQMNSLRAEDTAAYYCAREGVYFDSGTYRGYFDYWGQETLVTVSS
VL: EIVLTQSPATLSLSPGERATLSCRASQSVSSYLAWYQQKPGQAPRLLIYDASNRATGIPARFSGSGSGTDFTLTISSLEPEDFAVYYCQQRSHWPPITFGQGTRLEIK
B11: TCN-560 (5084_P10) (antibody, V domains shown)
VH: EVQLVESGGGLVQPGGSLRLSCAASGFIFRNYWMSWVRQAPGKGLEWVANIKQDGREKYYVDSLRGRVNISRDNAENSLYLHMNSLRVEDTAVYFCARARMVVVTGDGFDVWGHGTMVTVSS
VL: DIQMTQSPSSLSASVGDRVTITCRASQNIKRYFNWYQQKPGKAPKLLIYAASNLENGVPSRFSGSGSGTDFTLTISSLQPEDFATYYCQQSFSKSWTFGQGTNVDIK
B12: TCN-534 (5249_B02) (antibody, V domains shown)
VH: QVQLVQSGAEVKKPGSSVKVSCRESGGTFNGYTITWVRQAPGQGLEWMGGIIPMMGTVNYAQKLQGRVTITTDYFTKTAYMDLNNLRSEDTAMYYCVKIRYTGQQLLWGQGTLVTVSS
VL: DIQMTQSPSTLSASIGDRVTITCRASQSIASWLAWYQQKPGKAPKLLIYEAVNLESGVPSRFSGSGSGTDFTLTISSLQPDDFATYFCQHYGTISQTFGGGTKVEIK
B13: TCN-545 (5082_I15) (antibody, V domains shown)
VH: QVQLQQWGAGLLKPSETLSLSCAVFGGSFSDYYWTWIRQPPGKGLEWIGEIKHSGRTNYNPSLESRVTISVDTSKNQFSLKLSSVTAADTAIYYCARGTDPDTEGYCRSGSCSAFDFWGQGTLVTVSS
VL: EIVLTQSPGTLSLSPGERATLSCRASHFVNYRSLAWYQQTPGQVPRLLIYGASTRATGIPDRFSGSGSGTDFTLTISRLEPEDFAVYFCQQYGGSPRYTFGQGTRLEIK
B14: TCN-558 (5248_H10b) (antibody, V domains shown)
VH: QVQLVQSGSEVKKPGTSVKVSCTASGSVFTNYGISWVRQAPGQGLEWMGGIIPLFGAAKYAQKFQGRVTITADESTKTVYMELSRLTSKDTAIYFCAKAPRVYEYYFDQWGQGTPVTVSS
VL: EIVMTQFPATLSVSPGERVTLSCRASQSVSNNLAWYQQKPGQPPRLLIYDASTRATGVPAKFSGTGSGTEFTLSISSLQSEDFAVYYCQQYHNWPPSYSFGLGTKLEIK
B15: TCN-554 (5277_M05) (antibody, V domains shown)
VH: QVQLVQSGADLKKPGASVKVSCKASGYTFTDYYIHWVRQAPGQGLEWMGWINPESGDTKYAQKFQGRVTMTRDTSITTAYMELGRLRSDDTAVYYCARDVSTTWSWFAPWGQGTLVTVSS
VL: DIVMTQSPDSLAVSLGERATINCRSSQSIFHNSNNENYLAWYQQKPGQPPKLLIYWASTRESGVPDRFSGSGSGTDFTLTISSLQAEDVAVYFCQQYYNAPLTFGGGTKVEIK
B16: TCN-537 (3194_D21) (antibody, V domains shown)
VH: QVQLQQWGSGLLKPSETLSLTCAVYGGSFRDDYWTWIRQPPGKGLEWIGEINHSGRTNYNPSLKSRVTISVDTSLKQFSLKVISVTAADTAVYYCARGTSHVSRYFDWLPPTNWFDPWGQGTQVTVSS
VL: DIVLTQSPGTLSLSPGERATLSCRASQSVSSSYLAWYQQKPGQAPRLVMYGAATRATGIPDRFSGSGSGPDFTLTISRLEPEDFAMYYCQQYGNSPITFGQGTRLEIK
B17: TCN-543 (5081_G23) (antibody, V domains shown)
VH: QVHLVQSGAEVRKPGDSVKVSCKTSGYTFSTYPVAWVRQVPGQGLEWMGWISTYNGNTNFAQNFQGRVTLTTDTTTNTAYMEVRSLKFDDTAVYYCARVEGSYRDFWNNQNRFDPWGQGTLVTVSS
VL: SYVLTQPPSVSVAPGQTARISCGGSNIGGKSVHWYQQKPGQAPVLVVYDDSGRPSGIPERFSGSNSGDTATLTISRVEAGDEADYFCQVWDNFGGVFGTGTKVTVL
B18: TCN-544 (5082_A19) (antibody, V domains shown)
VH: QVQLQESGPGLVKPSETLSLTCTVSRGSIGHYFWSWIRQPPGKGLEWIGYISYSGSTKYNPSLRSRVTISVDTSKNQFSLNLNSVTATDTALYYCAREDYDILTGAGPGMEVWGQGTTVTVSS
VL: QSMLTQPPSASGTPGQRVTISCSGSSSNIGSNTVNWFKHLPGTAPKLLIYRNDLRPSGVPDRFSGSKSGTSASLAISGLQSEDEADYYCATWDDSLNGFYVFGTGTKVTVL

Assays:
[1] = target: hemagglutinin (HA) on live influenza A virus A/Wisconsin/67/05 H3N2 (Influenza A virus A/Wisconsin/67/2005 …); test: cell-based or functional assay
[2] = target: hemagglutinin (HA) on live influenza A virus A/Solomon Islands/3/06 H1N1 (Influenza A virus A/Solomon …); test: cell-based or functional assay
[3] = target: hemagglutinin (HA) of influenza A/Japan/305/57 H2N2 (Influenza A virus A/Japan/305/1957 …, UniProt P03451 16-562); test: ELISA, inactivated whole virions coated; transfection supernatant set 5
[4] = target: T1, hemagglutinin (HA) of influenza A/Solomon Islands/3/06 H1N1 (Influenza A virus A/Solomon …); test: as above
[5] = target: T1, hemagglutinin (HA) of influenza …; test: cell-based or functional assay

Row | Binder | % Neutralization [1] [%] | % Neutralization [2] [%] | OD450 [3] [OD450] | OD450 [4] [OD450] | % Neutralization [5] [%]
1 | B1 | 14 | 0 |  |  | 
2 | B2 | 100 |  |  |  | 
3 | B3 | 5 | 49 |  |  | 
4 | B4 |  |  | 2.1 | 3.57 | 48
5 | B5 | 99.9 | 81.6 |  |  | 
6 | B6 | 0 | 21 |  |  | 
7 | B7 | 98 | 3 |  |  | 
8 | B8 | 5 | 44 |  |  | 
9 | B9 | 6 | 99 |  |  | 
10 | B10 | 99 |  |  |  | 
11 | B11 |  |  | 3.55 | 3.52 | 94
12 | B12 | 0 | 65.7 |  |  | 
13 | B13 | 99 | 88 |  |  | 
14 | B14 | 7 | 84 |  |  | 
15 | B15 | 100 |  |  |  | 
16 | B16 | 0 | 0 |  |  | 
17 | B17 | 73 | 98 |  |  | 
18 | B18 | 97 |  |  |  | 
